Data reported in paper PMC7910423.

Target: CMP-Pse5Ac7Ac synthetase PseF from Aeromonas caviae (Aeromonas caviae)
Test: SEC-MALS; 100 uL of AcPseF at 4 mg/mL on a Superdex S200 column in 20 mM Tris pH 7.8, 50 mM NaCl, 2 mM MgCl2; Wyatt HELEOS-II light scattering and rEX refractive index detectors; BSA as standard

With “CMP-Pse5Ac7Ac synthetase PseF from Aeromonas caviae (enzyme)” the percent present as homodimer was > 99% and the stoichiometry N was 2.
